Experimental findings from PMC2175353 are described below.

Like-named read-outs stand apart in the source and are kept apart here.

In series [1] the target is T1, v-Myb AMV (bacterial, pVM2028) (avian myeloblastosis virus (AMV), UniProt P01104 1-382). Kind of series: EMSA. Background: In EMSA bound probe runs differently from free probe, usually more slowly.
Series [2] concerns the target T1, v-Myb AMV (bacterial, pVM2028). The series is described as follows: EMSA. The source holds these as a separate data set.

T1 sequence (P01104 whole entry): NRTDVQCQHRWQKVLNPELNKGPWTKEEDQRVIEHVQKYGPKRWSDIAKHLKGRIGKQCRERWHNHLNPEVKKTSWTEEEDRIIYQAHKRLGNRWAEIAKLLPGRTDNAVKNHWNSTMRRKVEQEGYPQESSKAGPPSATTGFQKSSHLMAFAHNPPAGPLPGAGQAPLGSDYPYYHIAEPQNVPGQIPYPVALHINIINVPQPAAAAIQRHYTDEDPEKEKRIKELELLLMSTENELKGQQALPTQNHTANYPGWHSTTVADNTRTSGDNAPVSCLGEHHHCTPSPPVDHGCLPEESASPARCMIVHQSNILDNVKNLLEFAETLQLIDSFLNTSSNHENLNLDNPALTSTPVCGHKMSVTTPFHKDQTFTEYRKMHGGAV

B1: mimA (mim-1 promoter Myb site A) (dsDNA)
DNA 1: GCTCTAAAAAACCGTTATAATGTACAGATATCTT
DNA 2: AAGATATCTGTACATTATAACGGTTTTTTAGAGC
In the case of B1, the binding result in series [1] is “binds”.

B2: MBS3wt (Myb site 3, lysozyme -2.7 kb enhancer) (dsDNA)
DNA 1: GGCTGGGAATATTTCTGTTTGACCACCATGGAG
DNA 2: CTCCATGGTGGTCAAACAGAAATATTCCCAGCC
B2: the binding result in series [2] is on record as “no binding”.
